The values below come from US10858688.

Common to all, as to assay: single-molecule speckle (SiMS) TIRF imaging of EGFP-fused probe (cell lysate) on fixed, permeabilized XTC cells; exponential fit of speckle lifetimes
For assay [1], the target named is microtubule in fixed and permeabilized Xenopus laevis XTC cells (Xenopus laevis).
The target in assay [2] is focal adhesion in fixed and permeabilized Xenopus laevis XTC cells (Xenopus laevis).
Assay [3] concerns the target intermediate filament in fixed and permeabilized Xenopus laevis XTC cells (Xenopus laevis).

With “APC fragment (amino acid residues 2536-2843 of sequence number 14), EGFP-3xFLAG fused at the C terminus”, the half-life in assay [1] turned out to be 0.1 s. “APC fragment (amino acid residues 2781-2819 of sequence number 14), FLAG-EGFP fused at the N terminus” returned a half-life in assay [1] of 0.027 s.

With “CLIP-170 fragment (amino acid residues 3-309 of sequence number 12), FLAG-EGFP fused at the N terminus”, the half-life in assay [1] worked out at 0.044 s. “MAP4 fragment (amino acid residues 1-908 of sequence number 4), FLAG-EGFP fused at the N terminus”: the half-life in assay [1] was determined as 0.109 s. Regarding “MAP4 fragment (amino acid residues 659-908 of sequence number 4), FLAG-EGFP fused at the N terminus”, in assay [1], the half-life was found to be 0.106 s. As for “Paxillin fragment (amino acid residues 54-498 of sequence number 15), FLAG-EGFP fused at the N terminus”, in assay [2], the half-life was 0.091 s. For “Paxillin fragment (amino acid residues 54-557 of sequence number 15), FLAG-EGFP fused at the N terminus”, in assay [2], the half-life is 0.246 s. As for “Paxillin fragment (amino acid residues 167-557 of sequence number 15), FLAG-EGFP fused at the N terminus”, in assay [2], the half-life stood at 0.138 s. Substance “Paxillin full length (FL) (full length of sequence number 15, residues 1-557), FLAG-EGFP fused at the N terminus” came in with a half-life in assay [2] of 0.196 s. Take “Plectin-1 fragment (amino acid residues 3777-4313 of sequence number 8), FLAG-EGFP fused at the N terminus”: in assay [3], the half-life was 0.052 s. Consider “Plectin-1 fragment (amino acid residues 3777-4364 of sequence number 8), FLAG-EGFP fused at the N terminus”, for which the half-life in assay [3] is 0.059 s.

In turn, “Plectin-1 fragment (amino acid residues 3777-4684 of sequence number 8), FLAG-EGFP fused at the N terminus” showed a half-life in assay [3] of 0.457 s. Turning to “Plectin-1 fragment (amino acid residues 4022-4364 of sequence number 8), FLAG-EGFP fused at the N terminus”, in assay [3], the half-life was found to be 0.103 s. “Plectin-1 fragment (amino acid residues 4066-4364 of sequence number 8), FLAG-EGFP fused at the N terminus” returned a half-life in assay [3] of 7.7 s.

As to “Tau isoform 3 (full length of sequence number 5, residues 1-383), FLAG-EGFP fused at the N terminus”, the half-life in assay [1] came to 0.11 s.

“Tau isoform 4 (sequence number 6, residues 1-352), FLAG-EGFP fused at the N terminus” displayed a half-life in assay [1] of 0.06 s. The substance “phosphatidylinositol-(4)-phosphate 5-kinase type Iγ-90 (PIPKIγ) fragment (641-668) (sequence number 18), N terminus tagged with FLAG-EGFP” gave a half-life in assay [2] of 0.496 s.

The term half-life denotes how long it takes for the measured level to halve.
